This note sets out measurements from patent US20240287150A1 (Harvard, published 2024).

The assay deals with T1, EPO receptor (EPOR) on TF-1 cells (human, UniProt P19235 25-508).
T1 sequence (looked up): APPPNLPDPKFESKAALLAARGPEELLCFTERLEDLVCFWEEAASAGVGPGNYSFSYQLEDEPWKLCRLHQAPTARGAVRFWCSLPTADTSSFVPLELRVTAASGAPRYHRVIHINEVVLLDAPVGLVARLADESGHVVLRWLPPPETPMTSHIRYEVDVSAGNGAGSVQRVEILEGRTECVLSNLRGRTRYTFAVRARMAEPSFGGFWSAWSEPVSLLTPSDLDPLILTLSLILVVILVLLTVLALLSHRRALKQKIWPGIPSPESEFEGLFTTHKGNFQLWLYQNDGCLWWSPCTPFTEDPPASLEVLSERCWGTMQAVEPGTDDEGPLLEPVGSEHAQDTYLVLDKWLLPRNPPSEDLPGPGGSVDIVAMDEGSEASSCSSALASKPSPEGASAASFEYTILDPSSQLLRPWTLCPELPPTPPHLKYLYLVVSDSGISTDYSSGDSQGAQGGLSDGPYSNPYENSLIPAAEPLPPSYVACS
The experiment in a line: cell-based or functional assay.

Substance “Darbepoetin (Aranesp), hyperglycosylated EPO (ligand)” registered an EC50 relative to epoetin alfa, TF-1 cell proliferation of 14.2 fold.
